Measured values published in publication PMC7159914.

Assays:
[1] = target: rotavirus (RV) A VP3, full-length recombinant (rotavirus A); experiment: cryo-EM structure
[2] = target: rotavirus (RV) A VP3, full-length recombinant (rotavirus A); experiment: crystal structure
[3] = target: rotavirus (RV) A VP3, full-length recombinant (rotavirus A); experiment: SEC + AUC

Measured: stoichiometry N

rotavirus (RV) A VP3, full-length recombinant (enzyme)
4: all assays above
